In the NTF2 design screens of Basanta et al. (2020):

Experiment: protease stability score; higher = more stable; yeast display proteolysis, trypsin and chymotrypsin;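 note: relative to predicted unfolded state with 0 unfolded-like and 1 meaning tenfold more protease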

Going from “DETEKIVRSVVHMFLHLMHTGDWEELMKLADPNTIVHFENHRKHGREDAIRHIIEFILRADHIEVHLDEIRIQGDKVYLNLRLILDINGRRIETRVHIILVKINGRWRIHSMDVE” to “SDHEHMILHYARHVLELWFTGDWEIFEKLADPRAKMTVNGQELHGRESVSKWMHDKKEEIRMRDLRIHHIDVQGDFVILHLRVDFEVNGQRIDTHIEIYILVVNGQLREIEIREK”, the protease stability score falls from 1.4 to 0.853.

Going from “SEEEELARHSIEVMIRLYETGDWDSSVDMADPHTRVHINGRDLIGREFYSEWSKEHLKRYKNATIILEDHEVQGNKVKVRIRIIVGDKESEIIFYILKINGRWIWHTVEVR” to “DEDEEAAEKMTELFRKSIKTGDEDLLTRLIDPHVRVDVNGRDIHGRESYFHELRNLGITNVEMQLKSRDVIGDKVHIDGTNRFNGRNHKVIIIVLKFNGRWVIEEIRIH”, the protease stability score falls from 2.19 to -0.045.

Going from “EEEKHLLRRIVRELTESERTGDEDHLDKLLDPHARTNVNGVDFHGREDWRKWTEEFFRRVDHIEFRIEDIKIINGVAIVDTRITMHIGDKHIHFELEIKNVIIDGRVKELRIKFK” to “DEAQEIVEFVFKILAEFQETGDEDSLKHLLDPNVRILQGNKELHGRDQNIKRLREELDRFGVDKFRVELRLEHVTIIDGRLHLDMRLNLDVNGVEIRLEVHFVLIKVDGQWSIHEVRFH”, the protease stability score rises from 0.91 to 1.61.

First: REDEQDLRKFVEDLIHSLKTGDEDSTSRLLDPHVRVEIGDKEFVGREDFTRLMVETVRRYDHIRFDLRRVEDIDGKAHIHGHIYIRVNGVWHHKEVEIIIDKINGKWVIRELRVK
Second: DEDTEAAREMLEIIVKSLFTGDEKSLLRLADPNWKLHQGNFSWHGRESVRRFHKEIRVHFDDIRVHRFSTINGRVHIDGHIHITVHIDGQTIHIDSDTTWHMVIINGKMHHAIIIHV
The protease stability score of the first is higher: 2.33 for the first, 0.881 for the second.

Going from “HEHEEMSELWLRIFERSVDTGDWNTLIELADPNVRQDYNGREYHGRESFVHTMREDIHRADHIEFHIDRFRVIGDKLDIDGTIIIRINGQTLIYRSHLHILKYDGRWIIKEVRFK” to “QEDEKLADEVVERIAHDIHTGDEDSLRHLMDPHVRLQVGDKRYIGRESVLEFLRQLRIEVEDVKIHDIHVVNGQMHSDTRIHGRIFVNGRDIETTLRSKHILLKYDGKWLWHSWHIH”, the protease stability score rises from 1 to 1.31.

Compared with “RELDEMAERAVEWYFRVLRTGDEHTLSRLLDPNVRVVFDGRTYIGREWYREHEEKLGVDHMRLDVKSVRNINGRIEVDVRVNREVNGQEIRIEMRMTSEKVDGRWEVKTVEEK”, “DEDDKDIEMVLRRLIEMVMTGDFEKAKRYADPDMQLDIGDKHFVGRETTITVLREWREHLGIDHVDIDHVHLHIIDGQVIVDLDITHRAENREIRVRFIHYVDKINGRWLVRRVDVKIH” is higher in protease stability score: 1.3 for the first, 2.31 for the second.

First: DEMREEVETILKLMEEWEKTGDFETILTYLDPNARLHENINGRELHSHGREFIHWAYEFFKNLRIETVQEDEVHIFENHFQIRVTLKGTINGRHYIFHRIIIINAIDGRIRHEVILYK
Second: DEEEESSHNALKYWMHSLITGDEHTIERLADPHVLMVVNGKTFHGMERFHEALHEFNERIDHIERIEIKDMKIFDGRVIVELKVHGRIGDKRHELETYLVILKYDGKWHLHSISVK
The protease stability score of the first is higher: 1.53 for the first, 0.964 for the second.

First: DEEEELNRRLVELMIRWHETGDFDMIEKYMDPDAKLNINGQEIHGMEKITNLFLWRFEFFKGAQYRMNRVRVQGDKASIDGRLNVDGRTHSIEIRIVIINGRNHSIEIHDR
Second: SEVEKMARHFVELLSKALLTGNWKTIKELVDPNDLLVVGDKIFHGWDVREEERKRFDHHVMDVKVDHHRDIDGRIEMETTLHLDVNINGVRFHFNHETEMIVRKVNGRWILKSETIR
The protease stability score of the first is higher: 1.41 for the first, 0.087 for the second.

Compared with “DEEEQLSKIALRHFVESLETGDEHLLHRLIDPHARDIVDGVEIHGRDRMVENLIHMIERFKNVRLEIKDIKVINGRVHVEGRLEVDGKKLTMNLHFQKFDGRWWVRSVERH”, “DEMEEQIKRLIHLLAHYLRTGDEHSTEELADPNVRIHIDGKEYHGRELFIKFLHERLRHLGIKHIHIHIKDIREIDGRIHIDGELEQHIDGKERRMKQEMLVEKIDGQWHIKELEIE” is higher in protease stability score: 1.52 for the first, 2.59 for the second.

Compared with “DDEEEINRRIAETFINNVKTGDEHSMREMMDPNTRLIVGDKHNHGWKEVEKFWREWRRHAGVDHIHVDDVRVIGNKVEIDETINQGDKFRDVRISIITINGRITELRIEIR”, “DEDKESAEEAFKVWVRDLMTGDEDSLRRLVDPRTLVEVGDKHFHGRDMFVHLEKLQRERADHIRIELHDFDIQGEKIHLDVRVILEQGEKRVFLRTHYLILKVNGRWIVKSLWIQ” is lower in protease stability score: 1.49 for the first, 0.921 for the second.

Going from “EHEDELKHFIHELWKYASDTGDFRTELLLLDPNAKVQVGDKEYHGREWLEFELRRLGVDRIIKEIHIHHEHEQGDKLEIRGELHLLFNGKRIVIDVKLFFLKIDGKWFNRHIIIK” to “DEEKKQVKDMMELYFRLFVTGNEEILTHLADPDTRIEIDGVSRVGMEEFKRMLEEYLKRLGADHIELRHWDIKFFNGRAINRLHIHIHYGDKSEDVRVTLILEKIDGRWRNRSEHREVG”, the protease stability score falls from 1.75 to 0.771.

First: DEDEHDVRELIELVLQVERTGNWKIFERLADPNVRLNIDGQEFHGREEALKLREDLLHHWGVDNIEVTLEDVTFQGDKVNSHFTSQFNGREFELIVIIMKIDGKWFLHQIQVHER
Second: TEEEEEFHEILEHFLTQLHTGDWEEIIKNLDPNVLFHFNGVLFHGREEVSRFLVEWFDKIKGMRIHIHELRIVGDKATIDTRLDVGEKTHRVIIHIRKINGRWLITEIRIE
The protease stability score of the first is lower: 1.19 for the first, 2.02 for the second.

“SERRERLEVLSEILLRAWETGDEQELVENADPHTKLEVHQGDKEKHFHGWELILKHIYQIKNVKIHIEHVHIQGDKIENHVKLNINGKRIEVEITVWVVDGVIKHMEVRIK” gave a protease stability score of 1.93.
